Blank lines part the entries; values can stand above or below the binder they belong to. Starred links: 1 amine or outer side, 2 acyl side, 3 side chain; linkers in the order of their positions; H or OH if unused. Non-standard residues stand in square brackets, D forms with d. *: point of attachment. Oic = O=C(O)[C@@H]1C[C@@H]2CCCC[C@@H]2N1; Phe(4-Cl) = N[C@@H](Cc1ccc(Cl)cc1)C(=O)O; dPhe(4-Cl) = N[C@H](Cc1ccc(Cl)cc1)C(=O)O; γGlu = O=C(O)[C@H](CCC(=O)[*:2])N[*:1]; NMeR = CN[C@@H](CCCNC(=N)N)C(=O)O; Tridecanoyl = CCCCCCCCCCCCC(=O)*; hArg = N=C(N)NCCCC[C@H](N)C(=O)O; Cha = N[C@@H](CC1CCCCC1)C(=O)O; Tle = CC(C)(C)[C@H](N)C(=O)O; β3hP = O=C(O)C[C@@H]1CCCN1; Nle = CCCC[C@H](N)C(=O)O; Orn = NCCC[C@H](N)C(=O)O; Deg = CCC(N)(CC)C(=O)O; AEEA = NCCOCCOCC(=O)O; Aib = CC(C)(N)C(=O)O; BLeu = β-leucine
Key:
rat APJ receptor = target: T1, rat APJ receptor (rat, UniProt Q9JHG3 1-377); experiment: cell-based or functional assay
T1 sequence (looked up): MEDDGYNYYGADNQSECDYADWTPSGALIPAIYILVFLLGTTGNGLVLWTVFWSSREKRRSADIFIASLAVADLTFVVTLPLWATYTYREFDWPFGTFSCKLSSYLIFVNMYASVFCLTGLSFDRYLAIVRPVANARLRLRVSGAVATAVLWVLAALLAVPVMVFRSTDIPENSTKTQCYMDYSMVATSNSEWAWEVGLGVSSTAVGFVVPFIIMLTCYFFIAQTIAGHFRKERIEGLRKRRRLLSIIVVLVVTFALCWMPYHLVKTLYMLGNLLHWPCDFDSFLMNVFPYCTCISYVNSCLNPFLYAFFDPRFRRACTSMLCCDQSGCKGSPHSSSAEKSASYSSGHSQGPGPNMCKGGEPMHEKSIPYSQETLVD

human APJ receptor = target: T2, human APJ receptor (human, UniProt P35414 1-380); experiment: cell-based or functional assay
T2 sequence (looked up): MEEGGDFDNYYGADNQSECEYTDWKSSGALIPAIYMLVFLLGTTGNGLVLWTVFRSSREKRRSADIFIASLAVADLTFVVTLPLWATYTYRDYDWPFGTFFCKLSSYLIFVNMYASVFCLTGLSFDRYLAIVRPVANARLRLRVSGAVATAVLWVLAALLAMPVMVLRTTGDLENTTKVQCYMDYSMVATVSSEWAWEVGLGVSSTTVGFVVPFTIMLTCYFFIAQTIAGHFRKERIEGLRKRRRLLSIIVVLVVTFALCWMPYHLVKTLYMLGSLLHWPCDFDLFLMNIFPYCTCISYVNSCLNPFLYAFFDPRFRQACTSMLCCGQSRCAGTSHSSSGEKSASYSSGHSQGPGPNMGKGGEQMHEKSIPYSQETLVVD

B3: Apelin polypeptide SEQ ID NO: 292 (peptide)
peptide: Tridecanoyl-[γGlu][AEEA][AEEA][dL][hArg]P[NMeR][Cha]SHKG[Oic][Nle]P[dPhe(4-Cl)]-OH
SMILES: CCCCCCCCCCCCC(=O)N[C@@H](CCC(=O)NCCOCCOCC(=O)NCCOCCOCC(=O)N[C@H](CC(C)C)C(=O)N[C@@H](CCCCNC(=N)N)C(=O)N1CCC[C@H]1C(=O)N(C)[C@@H](CCCNC(=N)N)C(=O)N[C@@H](CC1CCCCC1)C(=O)N[C@@H](CO)C(=O)N[C@@H](Cc1c[nH]cn1)C(=O)N[C@@H](CCCCN)C(=O)NCC(=O)N1[C@H](C(=O)N[C@@H](CCCC)C(=O)N2CCC[C@H]2C(=O)N[C@H](Cc2ccc(Cl)cc2)C(=O)O)C[C@@H]2CCCC[C@@H]21)C(=O)O
EC50 Rat APJ Receptor (GTPγS assay) (rat APJ receptor): 6.68 nM
EC50 Human APJ Receptor (GTPγS assay) (human APJ receptor): 5.78 nM

B4: Apelin polypeptide SEQ ID NO: 455 (peptide)
peptide: Tridecanoyl-[γGlu][AEEA][AEEA][dQ][hArg][Deg][dR][Cha]SHKG[Oic][Nle]P[Phe(4-Cl)]-OH
SMILES: CCCCCCCCCCCCC(=O)N[C@@H](CCC(=O)NCCOCCOCC(=O)NCCOCCOCC(=O)N[C@H](CCC(N)=O)C(=O)N[C@@H](CCCCNC(=N)N)C(=O)NC(CC)(CC)C(=O)N[C@H](CCCNC(=N)N)C(=O)N[C@@H](CC1CCCCC1)C(=O)N[C@@H](CO)C(=O)N[C@@H](Cc1c[nH]cn1)C(=O)N[C@@H](CCCCN)C(=O)NCC(=O)N1[C@H](C(=O)N[C@@H](CCCC)C(=O)N2CCC[C@H]2C(=O)N[C@@H](Cc2ccc(Cl)cc2)C(=O)O)C[C@@H]2CCCC[C@@H]21)C(=O)O
EC50 Rat APJ Receptor (GTPγS assay) (rat APJ receptor): 10.3 nM
EC50 Human APJ Receptor (GTPγS assay) (human APJ receptor): 2.48 nM

B7: Apelin polypeptide SEQ ID NO: 301 (peptide)
peptide: Tridecanoyl-[γGlu][AEEA][AEEA][dQ][hArg][β3hP][NMeR][Cha]SHKG[Oic][Nle]P[dPhe(4-Cl)]-OH
SMILES: CCCCCCCCCCCCC(=O)N[C@@H](CCC(=O)NCCOCCOCC(=O)NCCOCCOCC(=O)N[C@H](CCC(N)=O)C(=O)N[C@@H](CCCCNC(=N)N)C(=O)N1CCC[C@H]1CC(=O)N(C)[C@@H](CCCNC(=N)N)C(=O)N[C@@H](CC1CCCCC1)C(=O)N[C@@H](CO)C(=O)N[C@@H](Cc1c[nH]cn1)C(=O)N[C@@H](CCCCN)C(=O)NCC(=O)N1[C@H](C(=O)N[C@@H](CCCC)C(=O)N2CCC[C@H]2C(=O)N[C@H](Cc2ccc(Cl)cc2)C(=O)O)C[C@@H]2CCCC[C@@H]21)C(=O)O
EC50 Rat APJ Receptor (GTPγS assay) (rat APJ receptor): 29 nM
EC50 Human APJ Receptor (GTPγS assay) (human APJ receptor): 36 nM

B8: Apelin polypeptide SEQ ID NO: 297 (peptide)
peptide: Tridecanoyl-[γGlu][AEEA][AEEA][Orn]F[hArg][hArg]Q[NMeR]P[NMeR][Cha]SHKG[Oic][Nle]P[Phe(4-Cl)]-OH
SMILES: CCCCCCCCCCCCC(=O)N[C@@H](CCC(=O)NCCOCCOCC(=O)NCCOCCOCC(=O)N[C@@H](CCCN)C(=O)N[C@@H](Cc1ccccc1)C(=O)N[C@@H](CCCCNC(=N)N)C(=O)N[C@@H](CCCCNC(=N)N)C(=O)N[C@@H](CCC(N)=O)C(=O)N(C)[C@@H](CCCNC(=N)N)C(=O)N1CCC[C@H]1C(=O)N(C)[C@@H](CCCNC(=N)N)C(=O)N[C@@H](CC1CCCCC1)C(=O)N[C@@H](CO)C(=O)N[C@@H](Cc1c[nH]cn1)C(=O)N[C@@H](CCCCN)C(=O)NCC(=O)N1[C@H](C(=O)N[C@@H](CCCC)C(=O)N2CCC[C@H]2C(=O)N[C@@H](Cc2ccc(Cl)cc2)C(=O)O)C[C@@H]2CCCC[C@@H]21)C(=O)O
EC50 Rat APJ Receptor (GTPγS assay) (rat APJ receptor): 1.02 nM
EC50 Human APJ Receptor (GTPγS assay) (human APJ receptor): 0.698 nM

B10: Apelin polypeptide SEQ ID NO: 442 (peptide)
peptide: Tridecanoyl-[γGlu][AEEA][AEEA][Tle]RP[NMeR][Cha]SHKG[Oic][Nle]P[Phe(4-Cl)]-OH
SMILES: CCCCCCCCCCCCC(=O)N[C@@H](CCC(=O)NCCOCCOCC(=O)NCCOCCOCC(=O)N[C@H](C(=O)N[C@@H](CCCNC(=N)N)C(=O)N1CCC[C@H]1C(=O)N(C)[C@@H](CCCNC(=N)N)C(=O)N[C@@H](CC1CCCCC1)C(=O)N[C@@H](CO)C(=O)N[C@@H](Cc1c[nH]cn1)C(=O)N[C@@H](CCCCN)C(=O)NCC(=O)N1[C@H](C(=O)N[C@@H](CCCC)C(=O)N2CCC[C@H]2C(=O)N[C@@H](Cc2ccc(Cl)cc2)C(=O)O)C[C@@H]2CCCC[C@@H]21)C(C)(C)C)C(=O)O
EC50 Rat APJ Receptor (GTPγS assay) (rat APJ receptor): 2.16 nM
EC50 Human APJ Receptor (GTPγS assay) (human APJ receptor): 2 nM

B11: Apelin polypeptide SEQ ID NO: 307 (peptide)
peptide: Tridecanoyl-[γGlu][AEEA][AEEA][Orn]F[hArg][hArg][BLeu][hArg]P[hArg][Cha]SHKG[Oic][Nle]P[Phe(4-Cl)]-OH
EC50 Rat APJ Receptor (GTPγS assay) (rat APJ receptor): 0.31 nM
EC50 Human APJ Receptor (GTPγS assay) (human APJ receptor): 0.305 nM

Now from value to binder:

EC50 Rat APJ Receptor (GTPγS assay) (rat APJ receptor): 135 nM
EC50 Human APJ Receptor (GTPγS assay) (human APJ receptor): 94.8 nM
B1: Apelin polypeptide SEQ ID NO: 550 (peptide)
peptide: Tridecanoyl-[γGlu][AEEA][AEEA]Q[β3hP][NMeR][Cha]SHKG[Oic][Nle][Aib][Phe(4-Cl)]-OH
SMILES: CCCCCCCCCCCCC(=O)N[C@@H](CCC(=O)NCCOCCOCC(=O)NCCOCCOCC(=O)N[C@@H](CCC(N)=O)C(=O)N1CCC[C@H]1CC(=O)N(C)[C@@H](CCCNC(=N)N)C(=O)N[C@@H](CC1CCCCC1)C(=O)N[C@@H](CO)C(=O)N[C@@H](Cc1c[nH]cn1)C(=O)N[C@@H](CCCCN)C(=O)NCC(=O)N1[C@H](C(=O)N[C@@H](CCCC)C(=O)NC(C)(C)C(=O)N[C@@H](Cc2ccc(Cl)cc2)C(=O)O)C[C@@H]2CCCC[C@@H]21)C(=O)O

EC50 Rat APJ Receptor (GTPγS assay) (rat APJ receptor): 4.04 nM
EC50 Human APJ Receptor (GTPγS assay) (human APJ receptor): 1.79 nM
B2: Apelin polypeptide SEQ ID NO: 486 (peptide)
peptide: Tridecanoyl-[γGlu][AEEA][AEEA][dQ][hArg][Oic][dR][Cha]SHKG[Oic][Nle]P[Phe(4-Cl)]-OH
SMILES: CCCCCCCCCCCCC(=O)N[C@@H](CCC(=O)NCCOCCOCC(=O)NCCOCCOCC(=O)N[C@H](CCC(N)=O)C(=O)N[C@@H](CCCCNC(=N)N)C(=O)N1[C@H](C(=O)N[C@H](CCCNC(=N)N)C(=O)N[C@@H](CC2CCCCC2)C(=O)N[C@@H](CO)C(=O)N[C@@H](Cc2c[nH]cn2)C(=O)N[C@@H](CCCCN)C(=O)NCC(=O)N2[C@H](C(=O)N[C@@H](CCCC)C(=O)N3CCC[C@H]3C(=O)N[C@@H](Cc3ccc(Cl)cc3)C(=O)O)C[C@@H]3CCCC[C@@H]32)C[C@@H]2CCCC[C@@H]21)C(=O)O

EC50 Rat APJ Receptor (GTPγS assay) (rat APJ receptor): 3.59 nM
EC50 Human APJ Receptor (GTPγS assay) (human APJ receptor): 0.601 nM
B5: Apelin polypeptide SEQ ID NO: 489 (peptide)
peptide: Tridecanoyl-[γGlu][AEEA][AEEA]Q[hArg]P[hArg][Cha]SHKG[Oic][Nle]P[Phe(4-Cl)]-OH
SMILES: CCCCCCCCCCCCC(=O)N[C@@H](CCC(=O)NCCOCCOCC(=O)NCCOCCOCC(=O)N[C@@H](CCC(N)=O)C(=O)N[C@@H](CCCCNC(=N)N)C(=O)N1CCC[C@H]1C(=O)N[C@@H](CCCCNC(=N)N)C(=O)N[C@@H](CC1CCCCC1)C(=O)N[C@@H](CO)C(=O)N[C@@H](Cc1c[nH]cn1)C(=O)N[C@@H](CCCCN)C(=O)NCC(=O)N1[C@H](C(=O)N[C@@H](CCCC)C(=O)N2CCC[C@H]2C(=O)N[C@@H](Cc2ccc(Cl)cc2)C(=O)O)C[C@@H]2CCCC[C@@H]21)C(=O)O

EC50 Rat APJ Receptor (GTPγS assay) (rat APJ receptor): 10.4 nM
EC50 Human APJ Receptor (GTPγS assay) (human APJ receptor): 6.12 nM
B6: Apelin polypeptide SEQ ID NO: 557 (peptide)
peptide: Tridecanoyl-[γGlu][AEEA][AEEA][Tle][hArg]P[dR][Cha]SHKG[Oic][Nle]P[Phe(4-Cl)]-OH
SMILES: CCCCCCCCCCCCC(=O)N[C@@H](CCC(=O)NCCOCCOCC(=O)NCCOCCOCC(=O)N[C@H](C(=O)N[C@@H](CCCCNC(=N)N)C(=O)N1CCC[C@H]1C(=O)N[C@H](CCCNC(=N)N)C(=O)N[C@@H](CC1CCCCC1)C(=O)N[C@@H](CO)C(=O)N[C@@H](Cc1c[nH]cn1)C(=O)N[C@@H](CCCCN)C(=O)NCC(=O)N1[C@H](C(=O)N[C@@H](CCCC)C(=O)N2CCC[C@H]2C(=O)N[C@@H](Cc2ccc(Cl)cc2)C(=O)O)C[C@@H]2CCCC[C@@H]21)C(C)(C)C)C(=O)O

EC50 Rat APJ Receptor (GTPγS assay) (rat APJ receptor): 1.72 nM
EC50 Human APJ Receptor (GTPγS assay) (human APJ receptor): 0.198 nM
B9: Apelin polypeptide SEQ ID NO: 488 (peptide)
peptide: Tridecanoyl-[γGlu][AEEA][AEEA][dQ][hArg]P[hArg][Cha]SHKG[Oic][Nle]P[Phe(4-Cl)]-OH
SMILES: CCCCCCCCCCCCC(=O)N[C@@H](CCC(=O)NCCOCCOCC(=O)NCCOCCOCC(=O)N[C@H](CCC(N)=O)C(=O)N[C@@H](CCCCNC(=N)N)C(=O)N1CCC[C@H]1C(=O)N[C@@H](CCCCNC(=N)N)C(=O)N[C@@H](CC1CCCCC1)C(=O)N[C@@H](CO)C(=O)N[C@@H](Cc1c[nH]cn1)C(=O)N[C@@H](CCCCN)C(=O)NCC(=O)N1[C@H](C(=O)N[C@@H](CCCC)C(=O)N2CCC[C@H]2C(=O)N[C@@H](Cc2ccc(Cl)cc2)C(=O)O)C[C@@H]2CCCC[C@@H]21)C(=O)O

— patent US10941182 (Amgen, dated 2021)
